The values below are quoted from earlier work in paper PMC11544004.

Broadly, the Kd is the equilibrium constant for the complex coming apart.

One series addresses CD86 (Homo sapiens) (UniProt P42081).
A further series deals with CD80 (Homo sapiens) (UniProt P33681).
Series [1] concerns the target PVR (CD155) (Homo sapiens) (UniProt P15151).
Sequence of UniProt P15151 (P15151 21-343): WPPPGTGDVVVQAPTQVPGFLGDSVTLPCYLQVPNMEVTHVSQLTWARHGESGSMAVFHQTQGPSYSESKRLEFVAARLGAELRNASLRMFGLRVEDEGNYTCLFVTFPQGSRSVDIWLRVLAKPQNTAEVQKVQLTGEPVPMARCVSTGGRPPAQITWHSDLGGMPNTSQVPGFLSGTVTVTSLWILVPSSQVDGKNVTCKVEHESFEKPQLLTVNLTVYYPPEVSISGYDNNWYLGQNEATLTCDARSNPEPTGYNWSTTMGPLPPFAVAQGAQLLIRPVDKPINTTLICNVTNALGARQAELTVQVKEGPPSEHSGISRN

Sequence of UniProt P33681 (P33681 35-242): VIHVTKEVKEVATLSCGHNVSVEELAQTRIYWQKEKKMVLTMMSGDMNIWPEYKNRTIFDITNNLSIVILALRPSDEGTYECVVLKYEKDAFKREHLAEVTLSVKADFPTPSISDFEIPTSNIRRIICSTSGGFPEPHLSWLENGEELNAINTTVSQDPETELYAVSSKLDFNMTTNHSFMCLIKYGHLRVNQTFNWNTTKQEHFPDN
Sequence of UniProt P42081 (P42081 24-247): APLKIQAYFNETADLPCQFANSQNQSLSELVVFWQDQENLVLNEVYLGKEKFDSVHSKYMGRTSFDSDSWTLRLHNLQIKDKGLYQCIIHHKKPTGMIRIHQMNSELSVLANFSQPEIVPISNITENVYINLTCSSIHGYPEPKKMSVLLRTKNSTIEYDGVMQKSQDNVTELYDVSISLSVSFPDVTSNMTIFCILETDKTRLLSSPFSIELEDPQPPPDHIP

As to CD28 (from UniProt P10747), the equilibrium dissociation constant (Kd) was 20 µM with CD86 (Homo sapiens) and 4 µM in the series with CD80 (Homo sapiens).
With TIGIT (from UniProt Q495A1), the Kd in series [1] is 0.002 µM.
